Data as given in the nanobody polyreactivity screen of Harvey et al. (2022).

Test: yeast display, Sf9 membrane polyspecificity reagent, FACS + sequencing; frameworks hold sequencing errors
Method in brief: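 Genes from sorted yeast were amplified by colony PCR, read by MiSeq 2 × 250 sequencing and filtered on CDR length. These cells carried a synthetic nanobody library in Saccharomyces cerevisiae BJ5465 and were sorted by FACS into low and high (top ~1%) gates on anti-HA and streptavidin fluorescence. Polyreactivity is labelled according to the gate of origin.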
With “QVQLVESGGGLVQAGGSLRLSCAASGIIFRVYTMGWYRQAPGKERELVATIRTSGDSTYYADSVKGRFTISRDNAKNTVYLQMNSLKPEDTAVYYCAKRRNYWHYYWGQGTQVTVSS” the “polyreactivity (PSR sort gate)” value was “high polyreactivity”. For “QVQLVESGGGLVQAGGSLRLSCAASGIIFRYYAMGWYRQAPGKERELVAAISSSGVSTYYADSVKGRFTISRDNAKNNVYLQMNSLKPEDTAVYYCAAVTTWRMDYWGQGTQVNVSS”, the “polyreactivity (PSR sort gate)” value was “high polyreactivity”. For “QVQLVESGGGLVQAGGSLRLSCAASGIIFRYYTMGWYRQAPGKERELVAAITQSSGRTYYADSVKGRFTISRDNAKNTVYLQMNCLIPEDTAVFYCNVRPLRSYRAVDYWGQGTQVTVSS”, the “polyreactivity (PSR sort gate)” value was “high polyreactivity”. With “QVQLVESGGGLVQAGGSLRLSCAASGIIFSDYAMGWYRQAPGKERELVAAISRNGGSTYYADSVKGRFTISRDNAKNTVYLQMNSLKPEDTAVYYCAATRRYRYNWGQGTQVTVSS” the “polyreactivity (PSR sort gate)” value was “high polyreactivity”. With “QVQLVESGGGLVQAGGSLRLSCAASGIIFSDYAMGWYRQAPGKERELVAAITGGGSTYYADSVKGRFTISPDNAQNTVYLQMNSLKPEDTSVYYCNTDAWHETPVSGYSWGQCTQVTVSS” the “polyreactivity (PSR sort gate)” value was “low polyreactivity”. For “QVQLVESGGGLVQAGGSLRLSCAASGIIFSFNAMGWYRQAPGKERELVAAITWRDGSTYYADSVKGRFTISRDNAKNTVYLQMNSLKPEDTAVYYCNADLLDISSYDGMDYWGQGTQVTVSS”, the “polyreactivity (PSR sort gate)” value was “low polyreactivity”. For “QVQLVESGGGLVQAGGSLRLSCAASGIIFSIYALGWYRPAAGKERELVAAITYSGGRTYYADSVKGRFTISRDNAKNSVYLQMNSLKPEDTAVYYCAAVGYGEYYWGQGTQVTVSS”, the “polyreactivity (PSR sort gate)” value was “high polyreactivity”. With “QVQLVESGGGLVQAGGSLRLSCAASGIIFSIYAMGLYRQAPGKERELVAVISRSSGSTYYADSVKGRFTISRYNAKNTVYLQMNSLKPEDTAVYYCAARKNRAYGYWGQGTQVTVSS” the “polyreactivity (PSR sort gate)” value was “high polyreactivity”. With “QVQLVESGGGLVQAGGSLRLSCAASGIIFSQYAMGWYRQAPGKERELVASISSGGRTNYADSVKGRFTISRDNAKNTVYLQMNSLKPEDTAVYYCATRYRYKRYAASVQYDYWGQGTQVTVSS” the “polyreactivity (PSR sort gate)” value was “high polyreactivity”. For “QVQLVESGGGLVQAGGSLRLSCAASGIIFSSYAMGWYRQAPGKERELVADISYTGGSTYYADSVKGRFTISRDNAKNTVYLQMNSLKPEDTAVYYSAAGVYLHYSVDYWGQGTQVTVSS”, the “polyreactivity (PSR sort gate)” value was “low polyreactivity”. In the case of “QVQLVESGGGLVQAGGSLRLSCAASGIIFSSYVMGWYRQAPGKERELVAAISKSGARTSYADSVKGRFTISRDNAKNTVYLQMNSLKPEDTAVYYCAATYLLERPTSKHPRYDYWGQGTQVTVSS”, the “polyreactivity (PSR sort gate)” value is reported as “low polyreactivity”. With “QVQLVESGGGLVQAGGSLRLSCAASGIIFSSYVMGWYRQAPGKERELVAAISSRGVSTYYADSVKGRFTISRDNAKNTVYLQMNSLKPEDTAVYYCAGVGPSYVRYYYWGQGTQVTVSS” the “polyreactivity (PSR sort gate)” value was “high polyreactivity”. In the case of “QVQLVESGGGLVQAGGSLRLSCAASGIIFSTYAMGWYRQAPGKERELVAAISDGGASTYYADSVKGRFTISRDNAKNTVYLQMNSLKPEDTAVYFCAAVQTAGQFRYGYWGQGTQVTVSS”, the “polyreactivity (PSR sort gate)” value is reported as “high polyreactivity”. With “QVQLVESGGGLVQAGGSLRLSCAASGIIFSTYAMGWYRQAPGKERELVAAISVSGGRTYYADSVKGRFTISRDNAKNTVYLQMNSLKREDTAVYSCNALSSTEYDYWGQGTQVTVSS” the “polyreactivity (PSR sort gate)” value was “high polyreactivity”. In the case of “QVQLVESGGGLVQAGGSLRLSCAASGIIFSWYSMGWYIEAPGKERELVAAISWSGGRTYYSDSVKGRFTISRDNAKNNVYLQMNSLKPEDTAVYYCAAERNRYSHWEARYYWGQGTQVTVSS”, the “polyreactivity (PSR sort gate)” value is reported as “high polyreactivity”. For “QVQLVESGGGLVQAGGSLRLSCAASGIIFSYYAMGWYRPEHGKEREFVAVITTGGGSTSYADSVKGRFTISRDNAKNTVYLQMNSLKPEDTAVYYCTAGHLGLDGIQDGVDYWGQGTQVTVSS”, the “polyreactivity (PSR sort gate)” value was “low polyreactivity”. For “QVQLVESGGGLVQAGGSLRLSCAASGIIFTGYAMGWYRQAPGKERELVAAISESGGSTYYADSVKGRFTISRDNAKNTVYLQMNSLKPEDTAVDYCAVDALSITYGYWGQGTQVTVSS”, the “polyreactivity (PSR sort gate)” value was “low polyreactivity”. For “QVQLVESGGGLVQAGGSLRLSCAASGIIFTINAMGWYRQAPGKERELVAAISGRGARTYYADSVKGRFTISRDNAKNTVYLQMNSLKPEDTAVYYCNAANSRLHGSDYWGQGTQVTVSS”, the “polyreactivity (PSR sort gate)” value was “high polyreactivity”. In the case of “QVQLVESGGGLVQAGGSLRLSCAASGIIFTNNAIGWYRQAPGKERELGAAITSGGRTYYADSVKGRFTISRDNAKNTVSLQMNSLKPEDTAVYYCNARYYYGGWRVGYWGQGTQLTVSS”, the “polyreactivity (PSR sort gate)” value is reported as “high polyreactivity”. In the case of “QVQLVESGGGLVQAGGSLRLSCAASGIIFTPYTMGWYRQAPGKERELVAAITGSGGSTYYADSVKGRFTISRDNAKNTVYLQMNSLKPEDTAVYYCAAYKQYRFYRYDYWGQGTQVTVSS”, the “polyreactivity (PSR sort gate)” value is reported as “high polyreactivity”. In the case of “QVQLVESGGGLVQAGGSLRLSCAASGIIFTRYAMGWYRQAPGKERELVAAITTSGGRTYYADSVKGRFTISRDNAKNTVYLQMNSLKPEDTAVYYCAVSGHARYDYWGQGTQVTVSS”, the “polyreactivity (PSR sort gate)” value is reported as “high polyreactivity”. In the case of “QVQLVESGGGLVQAGGSLRLSCAASGIIFTRYVMGWYRQAPGKQRELVAVISRRGGTTYYADSVKGRFTISRDNAKNTVYLQMNSLKPEVTAVYYCNTDGYRYPGSGINYYYWGQGTQVTVSS”, the “polyreactivity (PSR sort gate)” value is reported as “high polyreactivity”. In the case of “QVQLVESGGGLVQAGGSLRLSCAASGIIFTSNTMGWYRQAPGKEREFVASINWNGSSTYADSVKGRFTISRDNAKNTVFLQMNSLKPEDTAVYDCNADYYRNSVQFSLYDYWGHGTQVTVSS”, the “polyreactivity (PSR sort gate)” value is reported as “low polyreactivity”. In the case of “QVQLVESGGGLVQAGGSLRLSCAASGIIFTSYVMGWYRQAPGKERELVAAISSDGGSTYYADSVKGRFTISRDNAKNTVYLQMNSLKPEDTAVYYCAVDWLEIGDTGFDYWGQGTQVTVSS”, the “polyreactivity (PSR sort gate)” value is reported as “low polyreactivity”. For “QVQLVESGGGLVQAGGSLRLSCAASGIIFTVYTMGWYRQAPGKERELVAAITTNGGSTYYADSVKGRFTISRDNAKNTVYLQMNSLKPEDTAVYYCAADYPYKPITYDYWGQGTQVTVSS”, the “polyreactivity (PSR sort gate)” value was “low polyreactivity”. For “QVQLVESGGGLVQAGGSLRLSCAASGIIFTYAMGWYRQAPGKERELVAAIDWRGGRTYYADTVKGRFTISRDNAKNTVYLEMNSLKPEDTAVYYCAARLPGGTYYWGQGTQVTVSS”, the “polyreactivity (PSR sort gate)” value was “high polyreactivity”. In the case of “QVQLVESGGGLVQAGGSLRLSCAASGIIFTYNAMGWYRQPPGKERELVAAISASGSSTYYADSVKGRFTISLDNAKNTVYLQMNSLKPEDTAVYYCAARTRRGLARYDYWGQGTQGTVSS”, the “polyreactivity (PSR sort gate)” value is reported as “high polyreactivity”. With “QVQLVESGGGLVQAGGSLRLSCAASGIIFTYYAMGWYIQAPGKERELVAGITWSGTTTYYADSVKGRFTISRDNAKKTVYLQMNSLKPEDPAVYYCNALGYYEHDYWGQGTQVTVSS” the “polyreactivity (PSR sort gate)” value was “low polyreactivity”. For “QVQLVESGGGLVQAGGSLRLSCAASGIIFTYYAMGWYRQAPGKEREFVAAISNGGSNTRYADSVKGRFTISRDNAKNTVYLQMNSLKPEDTAVYYCAARAYQHYNWGQGTQVTVSS”, the “polyreactivity (PSR sort gate)” value was “high polyreactivity”. With “QVQLVESGGGLVQAGGSLRLSCAASGIIFTYYAMGWYRQAPGKEREIVAAISWSGGNTYYADSVKGRFTISRDHAKNTVYLQMNSLKPEDTAVYYCARVQYWFYKPMYYWGQGTQVTVSS” the “polyreactivity (PSR sort gate)” value was “high polyreactivity”. With “QVQLVESGGGLVQAGGSLRLSCAASGIIFVPNTMGWYRQAPGKERELVAAIRWSGGTTYYADSVKGRFTISRDNAKNTVYLQMNSLKPEDTAVYYCAARYGSRSSYLAYYYWGQGTQVTVSS” the “polyreactivity (PSR sort gate)” value was “high polyreactivity”. For “QVQLVESGGGLVQAGGSLRLSCAASGIIFVRNAMGWYRQAPGKERELVAAITWRGSTYYADSVKGRFTISRDNAKNTVYLQMNSLKPEDTAVYYCAAQWLYLEYDYWGQGTQVTVSS”, the “polyreactivity (PSR sort gate)” value was “high polyreactivity”. In the case of “QVQLVESGGGLVQAGGSLRLSCAASGIIFVRYAMGWYRQAPGKERELVAAITWRGSTYYADSVKGRFTISRDNAKNTVYLQMNSLKPEDTAVYYCAAVKPHYTSFRDYYCGQGTQVTVSS”, the “polyreactivity (PSR sort gate)” value is reported as “high polyreactivity”. With “QVQLVESGGGLVQAGGSLRLSCAASGIIFVSYAMGWYRQAPGKEWELVADISSGGRTYYADSVKGRFTISRDNAKNTVYLPMNSLKPEDTAVYYCAKVKRDLQYPGLPEVLNREYWGQGTQVTVSS” the “polyreactivity (PSR sort gate)” value was “high polyreactivity”. For “QVQLVESGGGLVQAGGSLRLSCAASGIIFVYNAMGWYRQAPGKERELVAGISFIGDSTYYADSVKGRFTISRDNAKNTVYLQMNSLKPEDTAVYYCAADYYLPYWFFVGYDYWGQGTQVTVSS”, the “polyreactivity (PSR sort gate)” value was “low polyreactivity”. In the case of “QVQLVESGGGLVQAGGSLRLSCAASGIIFVYYDMGWYRQAPGKERELVASISRGGSTNYADSVKGRFTISRDNAKNTVYLQMNSLKPEDTAVYYCAAGSYSILVHLVRYYYWGQGTQVTVSS”, the “polyreactivity (PSR sort gate)” value is reported as “high polyreactivity”. With “QVQLVESGGGLVQAGGSLRLSCAASGIIFVYYTLGWYRQAPGKERELVAAITSGGSTYYADSVKGRFTISRDNAKNTVYLQMNSLKPEDTAVYYCAARTYRQPYYILDYYWGQGTQVTVSS” the “polyreactivity (PSR sort gate)” value was “high polyreactivity”. For “QVQLVESGGGLVQAGGSLRLSCAASGIIFVYYVMGWYRQAPGKERELVAAISWDGGSTYYADSVKGRFTISRDNAKNTVYLQMNSLKPEDTAVYYCAARYKGNPDRYGYWGLGTQVTVSS”, the “polyreactivity (PSR sort gate)” value was “high polyreactivity”. With “QVQLVESGGGLVQAGGSLRLSCAASGIIFWAYAMGWYRQAPGKERELVAAISWSGGRTYYADSVKGRFTISRDNAKNTVYLQMNSLKPEDTAVYYCAAYRFLLYDYWGQGTQVTVSS” the “polyreactivity (PSR sort gate)” value was “high polyreactivity”. In the case of “QVQLVESGGGLVQAGGSLRLSCAASGIIFWDYAMGWYSQAPGKERELVAAISSSGSTTYYADSVKGRFTISRDNAKNTVYLQMNSLKPEDTAVYYCAAESLYEDDKGDYWGQGTQVTVSS”, the “polyreactivity (PSR sort gate)” value is reported as “high polyreactivity”. In the case of “QVQLVESGGGLVQAGGSLRLSCAASGIIFWRYAMGWYRQAPGKERELDAGITSRGGSTYYADSVKGRFTISRDNAKNTVYLQMNSLKPEDTAVYYCNAPRGSRRSYRRTEYYYWGQGTQVTVSS”, the “polyreactivity (PSR sort gate)” value is reported as “high polyreactivity”. For “QVQLVESGGGLVQAGGSLRLSCAASGIIFWSSVMGWYRQAPGKERELVAAITFSGGSTYYADSVKGRFTISRDNAKNPVYLQMNSLKPEDTAVYYCAARYKLVRRYDYWGQGTQVTVSS”, the “polyreactivity (PSR sort gate)” value was “low polyreactivity”. In the case of “QVQLVESGGGLVQAGGSLRLSCAASGIIFWSYTMGWYSQAPGKERELVAVITSDGSTNYADSVKGRITISRDNAKNSVYLQMKSLKPEDTAVYDCAADPWLGTGRYDYWGQGTQVTVSS”, the “polyreactivity (PSR sort gate)” value is reported as “low polyreactivity”.
